Experimental data reported in the supplement of paper PMC9170038.

Tested on: MS2 coat protein
Experiment: apparent KD of MS2 coat protein; designed switch direction (-1 OFF switch, 1 ON switch): -1; higher = weaker reporter binding
In short: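 Transcription of designed RNA switches on Illumina chips was done by stalled E. coli RNA polymerase. SNAP-549-labelled MS2 coat protein was then titrated in doubling steps from 0.7 or 1.5 nM to 3 µM, with steps of 0.8–1.5 h at the lowest and 10–20 min at the highest concentration. The per-design median over clusters of curve-fitted normalised fluorescence is reported as apparent KD.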

[1] = input ligand: microRNA oligo, concentration not stated
[2] = Eterna round: R95, input ligand: microRNA oligo, concentration not stated
[3] = Eterna round: R95, input ligand: FMN 200 uM
[4] = Eterna round: R95, input ligand: none

Row | Sequence | apparent KD of MS2 coat protein (input ligand: FMN 200 uM) [nM] | apparent KD of MS2 coat protein (input ligand: none) [nM] | apparent KD of MS2 coat protein [1] [nM] | apparent KD of MS2 coat protein [2] [nM] | apparent KD of MS2 coat protein [3] [nM] | apparent KD of MS2 coat protein [4] [nM]
1 | CAUAUACAUGAGGAUCACCCAUGUGAGGAUAUGCUUUAUUAUUAUUAUUAUUAUUAUUGCAGAAGGUACAUUAC [LRO-Excl01-12] (Eterna round: R97, puzzle: Exclusion 1) | 23.9 | 24.6 |  |  |  | 
2 | AGCUGUGGCCGAGGAUAUACAUGAGGAUCACCCAUGUUACAUAAUUCGACAUGAGAAUACGAACCGUAGAAGGCGGUCUCAGCA [Eli eng2 - 002] (Eterna round: R96, puzzle: Exclusion NG 2) | 127 | 66.1 | 37.8 |  |  | 
3 | CCCUCACAUGAGGAUCACCCAUGUCAGGAUAUCUAGUCAGACAGUGUAGCACUAAUGAAGAGAAGGGACGUAUG [Edtetidi] (puzzle: Exclusion 1) |  |  |  | 23.9 |  | 
4 | GUCGUGCAGCUUUGCUGUACGAGUACAUGAGGAUCACCCAUGUAGGAUAUGGUACGCUUUGCGUGCCAGAAGGGCGUGCGUUGG [salish99_ExNG3_r04_005] (Eterna round: R96, puzzle: Exclusion NG 3) | 30.2 | 34.6 | 24 |  |  | 
5 | AAUAGACAUGAGGAUCACCCAUGUCAGGAUAUUUCGAGUAAGGUGGGCCUAGAAUUGGGAAGAAGGGACCUGGA [Eternabot (L1) Solution 29] (Eterna round: R97, puzzle: Exclusion 1) | 17.7 | 21.3 |  |  |  | 
6 | UACACCACAUGAGGAUCAAACAUGAGGAUCACCCAUGUGUAGCAAGCUUUUUGCUCGUCUUAUAAAUAUGUGGUGUA [Electric Eye 7 - Jieux - Sensor, turn-off variant 1] (Eterna round: R97, puzzle: Sensor, turn-off variant 1) | 11.7 | 11.9 |  |  |  | 
7 | ACAUGAGGAUCACCCAUGUCCGGCUGGUCUGUCUCGGCUGUCGAGGAUAUAGCUCGGUAUCCGCGCUAGAAGGCGGGAGCCGGU [Aenatbe mod 91] (Eterna round: R96, puzzle: Exclusion NG 3) | 76.7 | 48.8 | 29.4 |  |  | 
8 | ACGUUAGGAGGAUAUAGAAUUUUAGACAUGAGGAUCACCCAUGUCCUAUGUCAUGAGAGGCUAGAAGGCCUAGUUU [Eternabot (L2) Solution 51] (Eterna round: R97, puzzle: Exclusion 5) | 142 | 29.4 |  |  |  | 
9 | GUAAGUUCAGGAUAUGAUGAAUUAAACAUGAGGAUCACCCAUGUAGAUCCUGAAUUAACAUCAGAAGGGAAUAUUU [JL-ex5-4.53 Brourd mod] (Eterna round: R97, puzzle: Exclusion 5) | 22.2 | 15.5 |  |  |  | 
10 | AGAAGUAGAAACCGAUCCUACAUGAGGAUCACCCAUGUAGCAAGACGUGCACGCGAAGCUCGUCAGACUACCAGAGG [salish99_TOv1_r3_018] (puzzle: Sensor v3, turn-off variant 1) |  |  |  | 124 | 316 | 50.1
11 | GCUAGAGCAGGAUAUCGAGAUCCGCACAUGAGGAUCACCCAUGUACGGUCGAAAGACCGACGAGAAGGGCUCUAGC [Omei Ex5 E10] (Eterna round: R97, puzzle: Exclusion 5) | 178 | 186 |  |  |  | 
12 | UUGUGCACGCUGCGAUCCUACAUGAGGAUCACCCAUGUGGUCUGGUGGCGUGGGUCACCGGACUUGGCUCGUCUUGA [salish99_S_TOV1_R5_068] (Eterna round: R97, puzzle: Sensor, turn-off variant 1) | 118 | 129 |  |  |  | 
13 | AAUGAUUGACGAGGAUAUUGUGGUGAAACACGACGAGAAGGCGUAUGUCACAUGAGGAUCACCCAUGUGUGCUUUGUGGAUAUA [Ex NG1 #69] (Eterna round: R96, puzzle: Exclusion NG 1) | 39.7 | 31.1 | 24.2 |  |  | 
14 | UAUACACAUGAGGAUCACCCAUGUGAGGAUAUGUACAACAACCCGACGGUGUUGUUGUACAGAAGGCACAAAUA [JR_Exclusion1_Sub027] (puzzle: Exclusion 1) |  |  |  | 78.9 |  | 
15 | UUAUUGCAAGCAAGAUCCCACAUGAGGAUCACCCAUGUGCUCGUCUUAUAAGGUACUGUGACGAAAGUCACGGUACC [Sensor 3, v1 - 99] (puzzle: Sensor v3, turn-off variant 1) |  |  |  | 462 | 26 | 30.6
16 | GUGUAGAUAGGAUAUGCGUGAGUCUAGCGAAGCUAGAUUCUACAUGAGGAUCACCCAUGUAGAAGGGUCUACAC [Fiskers Ex 2 - 26] (puzzle: Exclusion 2) |  |  |  | 15.9 |  | 
17 | UUAGGAUCAGGAUAUGAUGUUUUUUACAUGAGGAUCACCCAUGUUGAUCCUGAUUCAACAUCAGAAGGGAUAAUUU [JR_Ex5_Sub081] (Eterna round: R97, puzzle: Exclusion 5) | 85.2 | 21.4 |  |  |  | 
18 | CUAGUCCGAGGAUAUAUUAAGUGAAACAUGAGGAUCACCCAUGUUAUUUAAUGGAAAUAAAUAGAAGGCGGACUAG [Mat - Exclusion 5 - JL mod - D56] (puzzle: Exclusion 5) |  |  |  | 34.6 | 27.2 | 51.6
19 | AAAACAAAGCUAGGAUAUUGUCCGAUGUAGCGAUAAGAAGGAGCAGAGUACGUCUGGUCCACAUGAGGAUCACCCAUGUACAAA [Inmaon] (Eterna round: R96, puzzle: Exclusion NG 1) | 183 | 67.5 | 79.6 |  |  | 
20 | UAAUGUAUAUAGGAUAUCUAGCUGGUAACAGCUAGAGAAGGAUGUACAUGAGGAUCACCCAUGUAAAUCGAUCA [Ex6/11-A2] (Eterna round: R97, puzzle: Exclusion 6) | 83.3 | 24.4 |  |  |  | 
21 | CAUUGUUAUCGAGGAUAUCGUAUUGAGAUACUACGAGAAGGCGGAAUAAACAUGAGGAUCACCCAUGUGAGACGGAUGCUUGUG [Ex NG1 #34] (Eterna round: R96, puzzle: Exclusion NG 1) | 34.1 | 28.3 | 16 |  |  | 
22 | GAGUACUCAGGAUAUGCAUGAGUAGUGAUGUAGAGAGUGUGACAUGAGGAUCACCCAUGUAGAAGGGAGGAAUG [Version #1] (Eterna round: R97, puzzle: Exclusion 2) | 338 | 105 |  |  |  | 
23 | CAGCGAACAGGAUAUACAUGAGGAUCACCCAUGUGUUCCAGCUAGGAAACUAGCAAAUGUAGAAGGGUUCGCUG [Mat - Exclusion 3 - JL Mod - D2] (Eterna round: R97, puzzle: Exclusion 3) | 584 | 324 |  |  |  | 
24 | UAUUUGUGAGGAUAUGAGUCGUAGAACAAUAGUACUACGUCUCAGAAGGUACAUGAGGAUCACCCAUGUUCCUC [Fiskers Ex 4 Super Stable 44 mod 31] (puzzle: Exclusion 4) |  |  |  | 18.4 |  | 
25 | CUUUUGUGAGGAUAUCAGUAGUAAUACAAUAGUAUUACUACUGAGAAGGCACAUGAGGAUCACCCAUGUUUCUC [Ex4 344 Omei mod 3] (puzzle: Exclusion 4) |  |  |  | 39.8 |  | 
26 | UGUUUACAUGAGGAUCACCCAUGUCAGGAUAUGAUCGAUAUAUGGAAACAUAUAUCGAUCAGAAGGGACUAGUG [Jieuxxlusion 2 - Jieux - Exclusion 1] (Eterna round: R97, puzzle: Exclusion 1) | 88.2 | 82.6 |  |  |  | 
